Tested on: Escherichia coli TOP10
Assay: shrunken log2 fold change of peptide-encoding DNA abundance (4.5 h post-induction vs induction); higher = less antimicrobial activity (less host growth inhibition)
Conditions: time post-induction: 4.5 h; library: site-saturation at positions 5, 18, 19, 20
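Also: peptides expressed intracellularly from a pBAD plasmid library in pooled LB shake-flask culture, induced with 0.3% L-arabinose, DNA abundance read by NGS, three biological replicates, DESeq2 with apeglm shrinkage.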

Sequence	shrunken log2 fold change
RRIRCRPPRLPRPRPRPAGSPRP	0.432
RRIRARPPRLPRPRPRPWRMPRP	0.0537
RRIRARPPRLPRPRPRPYGDPRP	-0.0672
RRIRWRPPRLPRPRPRPHDDPRP	0.0487
RRIRPRPPRLPRPRPRPYQGPRP	-0.0345
RRIRFRPPRLPRPRPRPDEGPRP	0.101
RRIRVRPPRLPRPRPRPLFIPRP	0.101
RRIRIRPPRLPRPRPRPYQPPRP	0.0299
RRIRNRPPRLPRPRPRPSYPPRP	0.0469
RRIRMRPPRLPRPRPRPCCHPRP	0.0146
RRIRMRPPRLPRPRPRPCQFPRP	0.0126
RRIRCRPPRLPRPRPRPGDIPRP	0.161
RRIRMRPPRLPRPRPRPKMIPRP	-0.0167
RRIRIRPPRLPRPRPRPMIYPRP	-0.205
RRIRKRPPRLPRPRPRPLNPPRP	0.129
RRIRQRPPRLPRPRPRPHHMPRP	-0.256
RRIRIRPPRLPRPRPRPYIMPRP	-1.15
RRIRMRPPRLPRPRPRPRHIPRP	0.0163
RRIRKRPPRLPRPRPRPVPGPRP	0.515
RRIRLRPPRLPRPRPRPGVDPRP	0.411
RRIRRRPPRLPRPRPRPDVNPRP	0.0369
RRIRDRPPRLPRPRPRPVVPPRP	0.0405
RRIRVRPPRLPRPRPRPQDKPRP	-0.603
RRIRTRPPRLPRPRPRPMYDPRP	-0.161
RRIRMRPPRLPRPRPRPYTWPRP	-0.101

Sequence	shrunken log2 fold change
RRIRARPPRLPRPRPRPAWHPRP	0.159
RRIRWRPPRLPRPRPRPFFYPRP	0.0746
RRIRYRPPRLPRPRPRPRKTPRP	-0.00513
RRIRTRPPRLPRPRPRPSECPRP	-0.166
RRIRGRPPRLPRPRPRPEMLPRP	1.71
RRIRTRPPRLPRPRPRPNSQPRP	-0.00223
RRIRNRPPRLPRPRPRPIWCPRP	-0.0833
RRIRNRPPRLPRPRPRPLNYPRP	-0.29
RRIRQRPPRLPRPRPRPRVKPRP	0.103
RRIRFRPPRLPRPRPRPKTWPRP	0.157
RRIRARPPRLPRPRPRPINYPRP	-0.239
RRIRMRPPRLPRPRPRPARQPRP	0.825
RRIRVRPPRLPRPRPRPMDCPRP	-0.0385
RRIRSRPPRLPRPRPRPDQQPRP	0.0193
RRIRNRPPRLPRPRPRPSTVPRP	-0.103
RRIRQRPPRLPRPRPRPSPSPRP	-0.144
RRIRPRPPRLPRPRPRPWPSPRP	-0.125
RRIRARPPRLPRPRPRPIPGPRP	0.0653
RRIRSRPPRLPRPRPRPGRVPRP	0.162
RRIRFRPPRLPRPRPRPVWKPRP	-0.0844
RRIRLRPPRLPRPRPRPKDWPRP	0.467
RRIRWRPPRLPRPRPRPLHVPRP	0.407
RRIRIRPPRLPRPRPRPICTPRP	-0.458
RRIRNRPPRLPRPRPRPTDFPRP	-0.164
RRIRSRPPRLPRPRPRPHACPRP	-0.0756
